Measurements reported in patent US20050124036.

Tests used:
[1] = biological target: T1, streptokinase (S8026) (Sigma, Deisenhofen), P00779
T1 chain: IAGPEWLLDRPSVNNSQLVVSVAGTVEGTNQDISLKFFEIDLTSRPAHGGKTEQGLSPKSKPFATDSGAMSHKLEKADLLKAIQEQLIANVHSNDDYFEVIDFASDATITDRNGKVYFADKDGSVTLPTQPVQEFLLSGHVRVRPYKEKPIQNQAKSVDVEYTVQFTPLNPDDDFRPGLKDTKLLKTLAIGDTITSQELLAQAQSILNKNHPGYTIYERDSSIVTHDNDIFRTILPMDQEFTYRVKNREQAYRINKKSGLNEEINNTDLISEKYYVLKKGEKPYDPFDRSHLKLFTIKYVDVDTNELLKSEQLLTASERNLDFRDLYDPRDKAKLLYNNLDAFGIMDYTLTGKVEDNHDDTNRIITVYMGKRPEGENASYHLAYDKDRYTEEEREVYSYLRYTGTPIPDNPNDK

[2] = biological target: T2, plasminogen according to the present invention (20 mg/ml, Example 8)
T2 chain: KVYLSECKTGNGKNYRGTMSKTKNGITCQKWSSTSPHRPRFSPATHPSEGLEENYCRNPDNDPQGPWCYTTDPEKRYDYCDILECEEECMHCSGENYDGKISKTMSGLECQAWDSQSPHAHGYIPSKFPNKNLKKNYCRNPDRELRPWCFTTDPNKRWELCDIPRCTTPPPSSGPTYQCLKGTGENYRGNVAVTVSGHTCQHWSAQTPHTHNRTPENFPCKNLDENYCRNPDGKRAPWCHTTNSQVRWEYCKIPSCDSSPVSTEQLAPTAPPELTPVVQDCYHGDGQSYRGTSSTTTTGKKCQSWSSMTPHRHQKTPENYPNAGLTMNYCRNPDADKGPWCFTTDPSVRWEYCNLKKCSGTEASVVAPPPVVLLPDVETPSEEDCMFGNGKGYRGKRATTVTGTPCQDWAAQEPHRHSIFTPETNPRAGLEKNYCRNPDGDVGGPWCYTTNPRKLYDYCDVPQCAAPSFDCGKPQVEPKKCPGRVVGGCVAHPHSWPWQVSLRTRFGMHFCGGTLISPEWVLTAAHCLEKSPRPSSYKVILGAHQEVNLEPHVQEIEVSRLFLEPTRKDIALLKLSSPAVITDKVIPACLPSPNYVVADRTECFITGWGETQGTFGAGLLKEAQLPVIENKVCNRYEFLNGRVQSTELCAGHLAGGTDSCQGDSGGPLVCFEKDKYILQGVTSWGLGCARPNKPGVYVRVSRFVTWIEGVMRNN

B1: recombinant human Lys-plasminogen secreted by Pichia pastoris carrying pSM54.2, pAC37.1 or pJW9.1 (alpha-factor prepropeptide joined by a Kex2 and two Ste13 … (protein)
chain: T2 chain
With B1 the “plasminogen activity after streptokinase activation, fermentation for 250 h, KM71H/pJW9.1-3” value [1] was “a plasminogen activity of 1375 U/l”, the “plasminogen activity of culture supernatant after activation with streptokinase, 72 h of induction, KM71H/pSM54.2-1/1” value [1] was 2 U/l and the “plasminogen activity of culture supernatant after activation with streptokinase, 72 h of induction, KM71H/pSM54.2-1/2” value [1] was 8 U/l. For the same protein, the “plasminogen activity of culture supernatant after activation with streptokinase, 72 h of induction, KM71H/pSM54.2-1/3” value [1] was 6 U/l, the “plasminogen activity of culture supernatant after activation with streptokinase, 118 h of induction, KM71H/pSM54.2-1/1” value [1] was 8 U/l and the “plasminogen activity of culture supernatant after activation with streptokinase, 118 h of induction, KM71H/pSM54.2-1/2” value [1] was 17 U/l. For the same protein, the “plasminogen activity of culture supernatant after activation with streptokinase, 118 h of induction, KM71H/pSM54.2-1/3” value [1] was 13 U/l, the “plasminogen activity of culture supernatant after activation with streptokinase, 120 h of induction, KM71/pAC37.1-3/1” value [1] was “an activity of 120 U/l” and the “plasminogen activity of culture supernatant after activation with streptokinase, 216 h of induction, KM71/pAC37.1-3/1” value [1] was “an activity of 190 U/l”. For the same protein, the “plasminogen activity of culture supernatant after activation with streptokinase, BSM minimal medium, 120 h of induction, KM71/pAC37.1-3/1” value [1] was “a plasminogen activity of 193 U/l” and the “plasminogen activity of culture supernatant after activation with streptokinase, BSM minimal medium, 168 h of induction, KM71/pAC37.1-3/1” value [1] was 289 U/l.

B2: recombinant human Lys-plasminogen secreted by Pichia pastoris KM71H/pMHS476.1 (alpha-factor prepropeptide joined by a Kex2 cleavage site) (protein)
chain: T2 chain
B2 was tested, and the “plasminogen activity of culture supernatant after activation with streptokinase (N-tosyl-Gly-Pro-Lys-pNA conversion), 72 h of induction, KM71H/pMHS476.1-1/1” value [1] was 2 U/l, the “plasminogen activity of culture supernatant after activation with streptokinase (N-tosyl-Gly-Pro-Lys-pNA conversion), 72 h of induction, KM71H/pMHS476.1-1/2” value [1] was 2 U/l and the “plasminogen activity of culture supernatant after activation with streptokinase (N-tosyl-Gly-Pro-Lys-pNA conversion), 72 h of induction, KM71H/pMHS476.1-1/3” value [1] was 1 U/l. The “plasminogen activity of culture supernatant after activation with streptokinase (N-tosyl-Gly-Pro-Lys-pNA conversion), 118 h of induction, KM71H/pMHS476.1-1/1” value [1] was 7 U/l, the “plasminogen activity of culture supernatant after activation with streptokinase (N-tosyl-Gly-Pro-Lys-pNA conversion), 118 h of induction, KM71H/pMHS476.1-1/2” value [1] was 9 U/l and the “plasminogen activity of culture supernatant after activation with streptokinase (N-tosyl-Gly-Pro-Lys-pNA conversion), 118 h of induction, KM71H/pMHS476.1-1/3” value [1] was 8 U/l.

B3: Clostripain (protein)
chain: NKNQKVTIMYYCDADNNLEGSLLNDIEEMKTGYKDSPNLNLIALVDRSPRYSSDEKVLGEDFSDTRLYKIEHNKANRLDGKNEFPEISTTSKYEANMGDPEVLKKFIDYCKSNYEADKYVLIMANHGGGAREKSNPRLNRAICWDDSNLDKNGEADCLYMGEISDHLTEKQSVDLLAFDACLMGTAEVAYQYRPGNGGFSADTLVASSPVVWGPGFKYDKIFDRIKAGGGTNNEDDLTLGGKEQNFDPATITNEQLGALFVEEQRDSTHANGRYDQHLSFYDLKKAESVKRAIDNLAVNLSNENKKSEIEKLRGSGIHTDLMHYFDEYSEGEWVEYPYFDVYDLCEKINKSENFSSKTKDLASNAMNKLNEMIVYSFGDPSNNFKEGKNGLSIFLPNGDKKYSTYYTSTKIPHWTMQSWYNSIDTVKYGLNPYGKLSWCKDGQDPEINKVGNWFELLDSWFDKTNDVTGGVNHYQW
With B3 the “plasmin activity after activation” value [2] was 1.7 U/mg.
